Data: patent publication US20130089556A1 (SAMSUNG ELECTRONICS, published 2013)

B1: humanized antibody huAbF46-H4 (antibody, human IgG1, kappa)
heavy: not shown
light: DIQMTQSPSSLSASVGDRVTITCKSSQSLLASGNQNNYLAWHQQKPGKAPKMLIIWASTRVSGVPSRFSGSGSGTDFTLTISSLQPEDFATYYCQQSYSAPLTFGQGTKVEIKRTVAAPSVFIFPPSDEQLKSGTASVVCLLNNFYPREAKVQWKVDNALQSGNSQESVTEQDSKDSTYSLSSTLTLSKADYEKHKVYACEVTHQGLSSPVTKSFNRGE
notes: also called hAbF46-H4
B2: humanized antibody huAbF46-H1 (antibody, human IgG1, kappa, V domains shown)
VH: EVQLVESGGGLVQPGGSLRLSCAASGFTFTDYYMSWVRQAPGKGLEWLGFIRNKANGYTTEYSASVKGRFTISRDNSKNSLYLQMNSLKTEDTAVYYCARDNWFAYWGQGTLVTVSS
VL: DIVMTQSPDSLAVSLGERATINCKSSQSLLASGNQNNYLAWHQQKPGQPPKMLIIWASTRVSGVPDRFSGSGSGTDFTLTISSLQAEDVAVYYCQQSYSAPLTFGGGTKVEIKR
notes: also called hAbF46-H1
B3: chimeric antibody chAbF46 (antibody, human IgG1)
heavy: not shown
light: DILMTQSPSSLTVSAGEKVTMSCKSSQSLLASGNQNNYLAWHQQKPGRSPKMLIIWASTRVSGVPDRFIGSGSGTDFTLTINSVQAEDLAVYYCQQSYSAPLTFGAGTKLELKRTVAAPSVFIFPPSDEQLKSGTASVVCLLNNFYPREAKVQWKVDNALQSGNSQESVTEQDSKDSTYSLSSTLTLSKADYEKHKVYACEVTHQGLSSPVTKSFNRGEC
notes: Mouse AbF46 variable regions on human IgG1 constant regions
B4: huAbF46-H4-U7-HC6 (antibody)
heavy: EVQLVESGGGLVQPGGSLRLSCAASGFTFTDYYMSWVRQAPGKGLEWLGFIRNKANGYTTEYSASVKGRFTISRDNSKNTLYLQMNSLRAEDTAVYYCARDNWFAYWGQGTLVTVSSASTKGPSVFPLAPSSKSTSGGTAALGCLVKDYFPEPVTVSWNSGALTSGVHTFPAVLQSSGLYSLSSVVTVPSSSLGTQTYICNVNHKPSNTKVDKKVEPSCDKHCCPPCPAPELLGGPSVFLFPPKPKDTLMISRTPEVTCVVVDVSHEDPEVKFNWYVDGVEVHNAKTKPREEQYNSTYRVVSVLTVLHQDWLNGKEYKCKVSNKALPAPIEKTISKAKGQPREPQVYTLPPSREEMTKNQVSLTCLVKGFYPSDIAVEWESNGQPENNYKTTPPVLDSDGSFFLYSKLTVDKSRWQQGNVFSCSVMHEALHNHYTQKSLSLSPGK
light: DIQMTQSPSSLSASVGDRVTITCKSSQSLLASGNQNNYLAWHQQKPGKAPKMLIIWASTRVSGVPSRFSGSGSGTDFTLTISSLQPEDFATYYCQQSYSAPLTFGQGTKVEIKRTVAAPSVFIFPPSDEQLKSGTASVVCLLNNFYPREAKVQWKVDNALQSGNSQESVTEQDSKDSTYSLSSTLTLSKADYEKHKVYACEVTHQGLSSPVTKSFNRGEC
B5: chAbF46-U6-HC8 (antibody, human IgG1)
heavy: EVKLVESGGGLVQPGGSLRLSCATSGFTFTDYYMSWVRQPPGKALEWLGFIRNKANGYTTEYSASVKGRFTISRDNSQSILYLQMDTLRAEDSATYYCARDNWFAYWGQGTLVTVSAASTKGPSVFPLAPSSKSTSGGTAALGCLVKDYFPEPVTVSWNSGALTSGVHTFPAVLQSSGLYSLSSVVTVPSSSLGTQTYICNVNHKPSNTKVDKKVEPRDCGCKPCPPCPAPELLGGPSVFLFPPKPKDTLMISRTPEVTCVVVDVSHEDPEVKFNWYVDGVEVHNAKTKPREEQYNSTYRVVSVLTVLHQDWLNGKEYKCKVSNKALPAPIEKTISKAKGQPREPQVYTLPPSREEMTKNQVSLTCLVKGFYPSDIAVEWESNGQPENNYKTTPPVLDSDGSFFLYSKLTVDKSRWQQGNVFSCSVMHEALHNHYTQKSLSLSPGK
light: B3 light
B6: chAbF46-U3-HC9 (antibody, human IgG1)
heavy: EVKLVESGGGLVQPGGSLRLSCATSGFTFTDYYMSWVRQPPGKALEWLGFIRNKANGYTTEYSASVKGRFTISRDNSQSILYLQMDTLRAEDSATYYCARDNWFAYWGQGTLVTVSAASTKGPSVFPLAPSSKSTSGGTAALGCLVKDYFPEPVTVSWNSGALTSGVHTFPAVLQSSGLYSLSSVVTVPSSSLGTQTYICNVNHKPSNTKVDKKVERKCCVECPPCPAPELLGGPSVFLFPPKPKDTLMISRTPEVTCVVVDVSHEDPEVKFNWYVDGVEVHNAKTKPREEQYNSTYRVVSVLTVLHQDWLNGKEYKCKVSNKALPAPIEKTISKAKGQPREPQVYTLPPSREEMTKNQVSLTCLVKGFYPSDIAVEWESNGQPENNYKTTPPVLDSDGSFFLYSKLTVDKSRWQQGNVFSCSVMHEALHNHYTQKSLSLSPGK
light: B3 light
B7: chAbF46-U7-HC6 (antibody, human IgG1)
heavy: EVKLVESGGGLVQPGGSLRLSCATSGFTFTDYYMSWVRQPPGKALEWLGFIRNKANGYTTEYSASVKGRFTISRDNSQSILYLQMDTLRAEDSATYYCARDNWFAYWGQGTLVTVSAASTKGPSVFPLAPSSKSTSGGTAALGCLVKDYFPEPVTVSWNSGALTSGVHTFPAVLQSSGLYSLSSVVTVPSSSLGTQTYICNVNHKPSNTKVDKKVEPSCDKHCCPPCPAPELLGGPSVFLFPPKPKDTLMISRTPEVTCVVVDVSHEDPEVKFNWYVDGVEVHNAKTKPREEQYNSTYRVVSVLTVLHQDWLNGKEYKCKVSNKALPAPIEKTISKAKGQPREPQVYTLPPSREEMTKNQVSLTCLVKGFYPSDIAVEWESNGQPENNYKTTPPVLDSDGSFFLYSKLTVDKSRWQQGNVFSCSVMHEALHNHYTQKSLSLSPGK
light: B3 light
B8: chAbF46-U6-HC7 (antibody, human IgG1)
heavy: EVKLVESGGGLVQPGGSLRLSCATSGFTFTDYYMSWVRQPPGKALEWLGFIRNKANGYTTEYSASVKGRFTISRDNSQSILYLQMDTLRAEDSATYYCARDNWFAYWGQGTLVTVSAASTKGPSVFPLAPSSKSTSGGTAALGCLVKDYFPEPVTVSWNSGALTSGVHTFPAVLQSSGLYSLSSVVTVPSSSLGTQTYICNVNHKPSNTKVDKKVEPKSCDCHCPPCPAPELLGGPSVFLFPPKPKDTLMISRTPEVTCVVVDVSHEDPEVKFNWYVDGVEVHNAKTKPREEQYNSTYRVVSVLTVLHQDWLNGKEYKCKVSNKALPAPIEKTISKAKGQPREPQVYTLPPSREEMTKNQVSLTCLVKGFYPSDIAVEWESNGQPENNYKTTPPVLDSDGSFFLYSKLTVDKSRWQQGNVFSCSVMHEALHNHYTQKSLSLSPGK
light: B3 light
B9: chAbF46-U8-HC5 (antibody, human IgG1)
heavy: not shown
light: B3 light

target: T1, human c-Met protein (R&D Systems) (human, UniProt P08581 25-932, limits assumed); assay: SPR (printed 'Biocare'), antibody immobilised on CM5 chip, c-Met injected at 100-0.39 nM
T1 construct: also called antigen
Procedure: (§1) Each of antibodies was immobilized to about 80˜110 RU on a CM5 chip, and the c-Met protein (which is an antigen) was injected at nine different concentrations within a range of about 100 nM to about 0.39 nM at a rate of 30 μl/min to obtain kₒₙ and koff values as illustrated in Table 2. KD values were calculated from the kₒₙ and koff values.

T1 sequence (P08581 25-932 limits assumed): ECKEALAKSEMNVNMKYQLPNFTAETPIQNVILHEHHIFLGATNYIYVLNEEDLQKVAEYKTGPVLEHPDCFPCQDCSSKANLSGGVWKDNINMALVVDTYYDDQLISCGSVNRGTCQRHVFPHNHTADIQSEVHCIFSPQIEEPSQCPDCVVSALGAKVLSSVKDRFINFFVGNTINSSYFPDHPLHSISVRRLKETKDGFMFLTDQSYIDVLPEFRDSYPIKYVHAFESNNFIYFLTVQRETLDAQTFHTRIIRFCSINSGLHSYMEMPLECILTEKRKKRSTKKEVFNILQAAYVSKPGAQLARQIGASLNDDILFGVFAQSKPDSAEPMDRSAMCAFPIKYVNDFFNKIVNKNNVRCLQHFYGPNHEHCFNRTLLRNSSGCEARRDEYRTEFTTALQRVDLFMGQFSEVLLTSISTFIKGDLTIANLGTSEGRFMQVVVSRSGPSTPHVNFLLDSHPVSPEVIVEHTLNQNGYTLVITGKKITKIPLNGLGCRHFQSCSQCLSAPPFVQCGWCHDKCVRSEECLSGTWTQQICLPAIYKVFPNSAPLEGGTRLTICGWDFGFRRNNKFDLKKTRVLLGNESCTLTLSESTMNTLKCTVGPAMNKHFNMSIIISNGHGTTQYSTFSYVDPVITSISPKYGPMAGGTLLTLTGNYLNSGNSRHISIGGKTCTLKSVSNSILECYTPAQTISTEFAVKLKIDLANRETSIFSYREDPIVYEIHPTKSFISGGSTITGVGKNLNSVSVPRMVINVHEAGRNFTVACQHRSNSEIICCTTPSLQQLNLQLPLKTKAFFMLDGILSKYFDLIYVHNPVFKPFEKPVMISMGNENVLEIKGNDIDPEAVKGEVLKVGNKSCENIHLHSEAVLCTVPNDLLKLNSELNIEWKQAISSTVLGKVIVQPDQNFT

Q: With B1 as the binder, how does the Kd read?
A: 2.05 to 2.39 nM

Q: And the koff?
A: 0.000696 s⁻¹

Q: What about the kon of the same binder?
A: 339000 M⁻¹ s⁻¹

Q: With B2 as the binder, how does the Kd read?
A: 1.89 to 1.97 nM

Q: And the koff?
A: 0.000655 s⁻¹

Q: What about the kon of the same binder?
A: 346000 M⁻¹ s⁻¹

Q: With B3 as the binder, how does the Kd read?
A: 1.01 to 1.42 nM

Q: And the koff?
A: 0.000367 s⁻¹

Q: And the kon?
A: 363000 M⁻¹ s⁻¹

target: T1, human c-Met protein (R&D Systems); assay: as above; remark: another data set of the same source
Procedure: as §1, with “antibodies shown in Table 4” for “antibodies”, “chip. The” for “chip, and the”, “protein” for “protein (which is an antigen)”, “4.” for “2.”

Q: Which Kd does the source give for B4 here?
A: 3.74 nM

Q: And the koff?
A: 0.000981 s⁻¹

Q: And the kon?
A: 263000 M⁻¹ s⁻¹

Q: With B1 as the binder, how does the Kd read?
A: 2.39 nM

Q: And the koff?
A: 0.000802 s⁻¹

Q: And the kon?
A: 336000 M⁻¹ s⁻¹

Q: What does the source list for B2?
A: Kd: 1.89 nM; koff: 0.000655 s⁻¹; kon: 346000 M⁻¹ s⁻¹

target: T1, human c-Met protein (R&D Systems); assay: as above; remark: another data set of the same source
Procedure: as §1, with “80-110” for “80˜110”, “protein” for “protein (which is an antigen)”, “3.” for “2.”

Q: Which Kd does the source give for B3 here?
A: 1.01 nM

Q: What about the koff of the same binder?
A: 0.000367 s⁻¹

Q: What about the kon of the same binder?
A: 363000 M⁻¹ s⁻¹

Q: How did the Kd turn out when B5 was run?
A: 1.34 nM

Q: What about the koff of the same binder?
A: 0.000626 s⁻¹

Q: What about the kon of the same binder?
A: 469000 M⁻¹ s⁻¹

Q: What does the source list for B6?
A: Kd: 1.38 nM; koff: 0.000554 s⁻¹; kon: 400000 M⁻¹ s⁻¹

Q: Which Kd does the source give for B7 here?
A: 1.66 nM

Q: What about the koff of the same binder?
A: 0.000862 s⁻¹

Q: What about the kon of the same binder?
A: 518000 M⁻¹ s⁻¹

Q: Which Kd does the source give for B8 here?
A: 1.63 nM

Q: What about the koff of the same binder?
A: 0.000614 s⁻¹

Q: What about the kon of the same binder?
A: 376000 M⁻¹ s⁻¹

Q: How did the Kd turn out when B9 was run?
A: 1.32 nM

Q: What about the koff of the same binder?
A: 0.000678 s⁻¹

Q: And the kon?
A: 515000 M⁻¹ s⁻¹
